IntAct's records for PubMed 19570982

B1: Fibulin-5 (Homo sapiens), Q9UBX5 (parent)
chain: MPGIKRILTVTILALCLPSPGNAQAQCTNGFDLDRQSGQCLDIDECRTIPEACRGDMMCVNQNGGYLCIPRTNPVYRGPYSNPYSTPYSGPYPAAAPPLSAPNYPTISRPLICRFGYQMDESNQCVDVDECATDSHQCNPTQICINTEGGYTCSCTDGYWLLEGQCLDIDECRYGYCQQLCANVPGSYSCTCNPGFTLNEDGRSCQDVNECATENPCVQTCVNTYGSFICRCDPGYELEEDGVHCSDMDECSFSEFLCQHECVNQPGTYFCSCPPGYILLDDNRSCQDINECEHRNHTCNLQQTCYNLQGGFKCIDPIRCEEPYLRISDNRCMCPAENPGCRDQPFTILYRDMDVVSGRSVPADIFQMQATTRYPGAYYIFQIKSGNEGREFYMRQTGPISATLVMTRPIKGPREIQLDLEMITVNTVINFRGSSVIRLRIYVSQYPF

Variants of: B1
Conditions: with eln_human ELN

Variant	effect of a mutation on the interaction
S227P	decreasing interaction
C217R	decreasing interaction
